{
  "source": "paper PMC11503520",
  "key": {"[1]": {"biological_target": "AAV8 viral protein 3 (VP3) (adeno-associated virus serotype 8)", "experiment": "CE-SDS of purified capsids; empty particles (EP) separated by DG-UC, denatured with SDS and mercaptoethanol, 60 °C 3 min; VP components detected at 214 nm; VP3 is the sum of VP3 and VP3 clip"}, "[2]": {"biological_target": "AAV8 viral protein 3 (VP3) (adeno-associated virus serotype 8)", "experiment": "CE-SDS of purified capsids; full particles (FP) separated by DG-UC, denatured with SDS and mercaptoethanol, 60 °C 3 min; VP components detected at 214 nm; VP3 is the sum of VP3 and VP3 clip"}, "[3]": {"biological_target": "AAV8 viral protein 3 (VP3) (adeno-associated virus serotype 8)", "experiment": "native MS; orbitrap-based CDMS of full particles (FP); mass of the genome subtracted from the mass distribution of FP, then VP stoichiometry of the capsid of FP estimated as for EP"}, "[4]": {"biological_target": "AAV8 viral protein 3 (VP3) (adeno-associated virus serotype 8)", "experiment": "native MS; orbitrap-based CDMS of empty particles (EP) of AAV8-H4C1, AAV8-FIXp and AAV8-FIXp hFIX mini-intron after buffer exchange into 200 mM ammonium acetate; average VP stoichiometry estimated from the mass distribution by assigning integer stoichiometries (0-60 for each VP) and weighted averaging"}, "[5]": {"biological_target": "AAV8 viral protein 3 (VP3) (adeno-associated virus serotype 8)", "experiment": "CE-SDS of purified capsids; AAV8-H4C1, not separated into EP and FP by DG-UC: ratio of the mixture; VP3 is the sum of VP3 and VP3 clip"}},
  "note": "Where “and” joins values, the source holds several entries; their conditions need not be identical. Identical values can stand only once.",
  "data": [
    {"substance": "AAV8 viral protein 1 (VP1) (natural protein)", "values": [
      {"measurement": "VP stoichiometry VP1: VP2: VP3 (copies of VP1 in the capsid)", "setting": "[1]", "result": "4.9 and 5"},
      {"measurement": "VP stoichiometry VP1: VP2: VP3 (copies of VP1 in the capsid)", "setting": "[2]", "result": "4.6 and 4.7"},
      {"measurement": "VP stoichiometry VP1: VP2: VP3 (copies of VP1 in the capsid)", "setting": "[3]", "result": "1.7 and 3.4 and 1.8"},
      {"measurement": "VP stoichiometry VP1: VP2: VP3 (copies of VP1 in the capsid)", "setting": "[4]", "result": "2.5 and 2.6"},
      {"measurement": "VP stoichiometry VP1: VP2: VP3 (copies of VP1 in the capsid)", "setting": "[5]", "result": 5.1}
    ]},
    {"substance": "AAV8 viral protein 3 (VP3) (natural protein)", "values": [
      {"measurement": "VP stoichiometry VP1: VP2: VP3 (copies of VP3 in the capsid)", "setting": "[1]", "result": 45.4},
      {"measurement": "VP stoichiometry VP1: VP2: VP3 (copies of VP3 in the capsid)", "setting": "[2]", "result": "46.1 and 47.8"},
      {"measurement": "VP stoichiometry VP1: VP2: VP3 (copies of VP3 in the capsid)", "setting": "[3]", "result": "51.7 and 44.2 and 51"},
      {"measurement": "VP stoichiometry VP1: VP2: VP3 (copies of VP3 in the capsid)", "setting": "[4]", "result": 48},
      {"measurement": "VP stoichiometry VP1: VP2: VP3 (copies of VP3 in the capsid)", "setting": "[5]", "result": 47}
    ]},
    {"substance": "AAV8 viral protein 2 (VP2) (natural protein)", "values": [
      {"measurement": "VP stoichiometry VP1: VP2: VP3 (copies of VP2 in the capsid)", "setting": "[1]", "result": "9.7 and 9.6"},
      {"measurement": "VP stoichiometry VP1: VP2: VP3 (copies of VP2 in the capsid)", "setting": "[2]", "result": "9.3 and 7.5"},
      {"measurement": "VP stoichiometry VP1: VP2: VP3 (copies of VP2 in the capsid)", "setting": "[3]", "result": "6.6 and 12.3 and 7.1"},
      {"measurement": "VP stoichiometry VP1: VP2: VP3 (copies of VP2 in the capsid)", "setting": "[4]", "result": 9.4},
      {"measurement": "VP stoichiometry VP1: VP2: VP3 (copies of VP2 in the capsid)", "setting": "[5]", "result": 7.8}
    ]}
  ]
}
